This is an account of results in the supplement of paper PMC9233669.

The subject of one series is biotinyl-Phe-oxazolone. Briefly: self-aminoacylation, catalytic enhancement (BFO) (fold over background); higher = more active; k-Seq, kA / k0A0; sequences stand for … in GGGAAUGGAUCCACAUCUACGAAUUC…UUCACUGCAGACUUGACGAAGCUG
A digest of the protocol:
(§1)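 Catalytic enhancement equals the median kA over the uncatalyzed rate, the latter read from the low-activity peak of a bimodal Gaussian fit. Values of kA came from fitting each sequence's fraction reacted to a pseudo-first-order model, with 1000 bootstraps. Reacted RNA was captured with streptavidin and quantified by triplicate qPCR and Illumina sequencing after 90 minutes at room temperature with 2–1250 μM biotinyl-aminoacyl-oxazolone and 0.43 μM mutagenized RNA pools bearing a 21-nt variable region.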

In the next series the test system is biotinyl-Met-oxazolone. Briefly: self-aminoacylation, catalytic enhancement (BMO) (fold over background); higher = more active; k-Seq, kA / k0A0; sequences stand for … in GGGAAUGGAUCCACAUCUACGAAUUC…UUCACUGCAGACUUGACGAAGCUG
The essentials: as §1

In a further series the test system is biotinyl-Leu-oxazolone. Briefly: self-aminoacylation, catalytic enhancement (BLO) (fold over background); higher = more active; k-Seq, kA / k0A0; sequences stand for … in GGGAAUGGAUCCACAUCUACGAAUUC…UUCACUGCAGACUUGACGAAGCUG
The essentials: as §1

The subject of the next series is biotinyl-Trp-oxazolone. Briefly: self-aminoacylation, catalytic enhancement (BWO) (fold over background); higher = more active; k-Seq, kA / k0A0; sequences stand for … in GGGAAUGGAUCCACAUCUACGAAUUC…UUCACUGCAGACUUGACGAAGCUG
A digest of the protocol: as §1

For the next series, the system named is biotinyl-Ile-oxazolone. Description: self-aminoacylation, catalytic enhancement (BIO) (fold over background); higher = more active; k-Seq, kA / k0A0; sequences stand for … in GGGAAUGGAUCCACAUCUACGAAUUC…UUCACUGCAGACUUGACGAAGCUG
The essentials:
as §1

The subject of the next series is biotinyl-Val-oxazolone. Briefly: self-aminoacylation, catalytic enhancement (BVO) (fold over background); higher = more active; k-Seq, kA / k0A0; sequences stand for … in GGGAAUGGAUCCACAUCUACGAAUUC…UUCACUGCAGACUUGACGAAGCUG
The essentials: as §1

Fewer inactive variants are shown than the library holds.

Take “AUUCACCAAGGUCAUAGGGUG [Fam2.2 aminoacylation ribozyme variant]”: the self-aminoacylation in the series on biotinyl-Phe-oxazolone amounted to 9.85; with biotinyl-Met-oxazolone it was 2.48; with biotinyl-Leu-oxazolone, 4.37; with biotinyl-Trp-oxazolone it was 2.2.
With “AACUUAGCUAAUAGUCGCAAG [Fam3.1 aminoacylation ribozyme variant]”, the self-aminoacylation in the series with biotinyl-Phe-oxazolone is 2.75; with biotinyl-Ile-oxazolone it was 2.2; with biotinyl-Met-oxazolone, 2.42; with biotinyl-Leu-oxazolone it was 3.27.
Turning to “AUUACCGUGCUCAUCGAGUGA [Fam2.1 aminoacylation ribozyme variant]”, the self-aminoacylation in the series with biotinyl-Phe-oxazolone was found to be 2.01; with biotinyl-Met-oxazolone it was 2.12; with biotinyl-Leu-oxazolone, 2.64; in the series on biotinyl-Trp-oxazolone, 3.33.
Regarding “AACUUUGCUAAUAGUCGCAAC [Fam3.1 aminoacylation ribozyme variant]”, the self-aminoacylation came to 4.1 in the series on biotinyl-Phe-oxazolone, 2.22 with biotinyl-Ile-oxazolone, 2.16 with biotinyl-Leu-oxazolone and 2.59 with biotinyl-Trp-oxazolone.
With “AAGUUUGCUAAUAUUCGCGAG [Fam3.1 aminoacylation ribozyme variant]”, the self-aminoacylation in the series on biotinyl-Phe-oxazolone came to 16.5; in the series on biotinyl-Ile-oxazolone, 2.04; in the series on biotinyl-Met-oxazolone, 2.02; in the series on biotinyl-Trp-oxazolone, 3.31.
On to “CCACAAUUCACGCAAUCGGUC [Fam1B.1 aminoacylation ribozyme variant]”, for which, in the series with biotinyl-Val-oxazolone, the self-aminoacylation came to 2.05.
Take “AUCACCCUGGUCAUCAAGUGA [Fam2.1 aminoacylation ribozyme variant]”: the self-aminoacylation is 14.2 with biotinyl-Phe-oxazolone; 3.75 in the series on biotinyl-Met-oxazolone; 2.1 with biotinyl-Val-oxazolone; 3.46 with biotinyl-Leu-oxazolone; 4.8 with biotinyl-Trp-oxazolone.
“AUUCACCUAUGUCAUGGGGUG [Fam2.2 aminoacylation ribozyme variant]”: the self-aminoacylation in the series on biotinyl-Phe-oxazolone was 14.1; in the series with biotinyl-Met-oxazolone, 2.89; in the series with biotinyl-Val-oxazolone, 2.07; in the series on biotinyl-Leu-oxazolone it was 3.16; in the series on biotinyl-Trp-oxazolone it was 2.69.
“ACGUUUGCCAAUAGUCGCAAG [Fam3.1 aminoacylation ribozyme variant]”: the self-aminoacylation is 6.32 with biotinyl-Phe-oxazolone, 2.04 in the series with biotinyl-Met-oxazolone and 2.16 with biotinyl-Leu-oxazolone.
For “AAGUUGGCUAAAAGUCGCAAG [Fam3.1 aminoacylation ribozyme variant]”, the self-aminoacylation stood at 3.1 in the series with biotinyl-Phe-oxazolone and 2.01 in the series on biotinyl-Ile-oxazolone.
In the case of “CUACUGCAAACAUUCGGUCUG [Fam1A.1 aminoacylation ribozyme variant]”, the self-aminoacylation stood at 9.39 in the series with biotinyl-Phe-oxazolone and 2.01 in the series with biotinyl-Ile-oxazolone.
As for “AUUAACCUAGAUCAUCGGGUG [Fam2.2 aminoacylation ribozyme variant]”, the self-aminoacylation was determined as 14.9 in the series on biotinyl-Phe-oxazolone, 2.81 in the series with biotinyl-Met-oxazolone, 2.84 with biotinyl-Leu-oxazolone and 2.54 in the series with biotinyl-Trp-oxazolone.
As for “AUUCACCUAGGACAUCGGGUA [Fam2.2 aminoacylation ribozyme variant]”, the self-aminoacylation in the series with biotinyl-Phe-oxazolone was determined as 7.17; with biotinyl-Ile-oxazolone, 2.02; in the series on biotinyl-Met-oxazolone, 2.72; with biotinyl-Leu-oxazolone, 2.63; in the series with biotinyl-Trp-oxazolone it was 2.09.
As to “CUUAGCCUGGUCAUCGAGUGA [Fam2.1 aminoacylation ribozyme variant]”, the self-aminoacylation in the series on biotinyl-Phe-oxazolone was determined as 2.6; with biotinyl-Met-oxazolone, 2.57; in the series with biotinyl-Leu-oxazolone it was 3.38; with biotinyl-Trp-oxazolone it was 2.72.
For “AUUCACCUAGGCCAUCGGCUG [Fam2.2 aminoacylation ribozyme variant]”, the self-aminoacylation turned out to be 10.5 in the series on biotinyl-Phe-oxazolone, 2.27 with biotinyl-Met-oxazolone, 2.59 with biotinyl-Val-oxazolone and 2.03 with biotinyl-Leu-oxazolone.
On to “AUUCACCUACGUCAACGGGUG [Fam2.2 aminoacylation ribozyme variant]”, for which the self-aminoacylation turned out to be 9.97 in the series on biotinyl-Phe-oxazolone, 2.35 in the series on biotinyl-Met-oxazolone, 3.09 with biotinyl-Leu-oxazolone and 2.84 in the series with biotinyl-Trp-oxazolone.
Turning to “AACUUUGCUAACAGUCGCAAG [Fam3.1 aminoacylation ribozyme variant]”, the self-aminoacylation in the series on biotinyl-Phe-oxazolone was determined as 2.06; in the series with biotinyl-Ile-oxazolone it was 2.17; in the series with biotinyl-Met-oxazolone, 2.15; in the series on biotinyl-Leu-oxazolone, 3.43; with biotinyl-Trp-oxazolone, 2.08.
Turning to “CCACAAUUCAAGCAAUCGGGC [Fam1B.1 aminoacylation ribozyme variant]”, the self-aminoacylation with biotinyl-Ile-oxazolone turned out to be 2.22; with biotinyl-Met-oxazolone, 2.14; in the series with biotinyl-Trp-oxazolone it was 2.04.
“AUUCAGCUACGUCAUCGGGUG [Fam2.2 aminoacylation ribozyme variant]”: the self-aminoacylation was 10.1 in the series with biotinyl-Phe-oxazolone, 2.02 in the series on biotinyl-Val-oxazolone, 2.71 in the series on biotinyl-Leu-oxazolone and 3.07 in the series on biotinyl-Trp-oxazolone.
For “CCACACUUCAAGCAAGCGGUG [Fam1B.1 aminoacylation ribozyme variant]”, the self-aminoacylation in the series on biotinyl-Met-oxazolone amounted to 2.45; in the series on biotinyl-Leu-oxazolone it was 3.19; in the series on biotinyl-Trp-oxazolone, 2.4.
For the sequence “CCAGACUUCGAGCAAUCGGUC [Fam1B.1 aminoacylation ribozyme variant]”, the self-aminoacylation in the series with biotinyl-Val-oxazolone was 2.09.
“AUACACCUAGGUCAUCGGGCG [Fam2.2 aminoacylation ribozyme variant]”: the self-aminoacylation in the series with biotinyl-Phe-oxazolone turned out to be 11; in the series on biotinyl-Met-oxazolone, 2.8; in the series on biotinyl-Val-oxazolone it was 2.18; with biotinyl-Leu-oxazolone, 2.58; with biotinyl-Trp-oxazolone it was 2.86.
For the sequence “AUUCACCUAGGUCAUCGGGAC [Fam2.2 aminoacylation ribozyme variant]”, the self-aminoacylation in the series with biotinyl-Phe-oxazolone stood at 2.12; with biotinyl-Met-oxazolone, 2.56; with biotinyl-Leu-oxazolone, 3; in the series on biotinyl-Trp-oxazolone it was 2.55.
For “CCGCACUUCAAGCCAUCGGUC [Fam1B.1 aminoacylation ribozyme variant]”, the values for the self-aminoacylation with biotinyl-Phe-oxazolone, in the series with biotinyl-Val-oxazolone and in the series on biotinyl-Trp-oxazolone were 2.13, 2.26 and 2.01, respectively.
“AUUACCCUGGUCGUGGAGUGA [Fam2.1 aminoacylation ribozyme variant]”: the self-aminoacylation in the series on biotinyl-Phe-oxazolone amounted to 12.3; in the series with biotinyl-Met-oxazolone it was 2.19; with biotinyl-Leu-oxazolone, 2.42; with biotinyl-Trp-oxazolone it was 2.5.
In the case of “AUGACCCUGGUCAUCAAGUGA [Fam2.1 aminoacylation ribozyme variant]”, the self-aminoacylation in the series on biotinyl-Phe-oxazolone came to 2.74; in the series on biotinyl-Met-oxazolone, 2.4; in the series on biotinyl-Leu-oxazolone it was 2.28; in the series with biotinyl-Trp-oxazolone, 2.06.
